Test: protease stability score; higher = more stable; yeast display proteolysis, trypsin and chymotrypsin;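 also: log10 excess protease needed over predicted unfolded state with 0 meaning unfolded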

Sequence | protease stability score
DEDVQKIAETFWRVLKQGNEDDARRLIDPNARINVGNKNYHGREQIAEIIKKKKEEIRFSIDDVKVRVHNGELTASIDFKVNVNGRPDSIHVEFRMVVHNGKIVQIQMQVDEDWMKELES | 0.788
DEDVVDEFRRAIESNDFDRLVELADENAKADIGNKTVRGRDEMKDLMTSQKRRVDHLQVTSFSIDGDKLTVRYIANIDGHKIDNVVRFVAHNGKLKHMEVRARSEEQQKTLEKLIG | 0.059
DEDVVKEWMTDQRNNNEKRLQSLVDPNAKLEYGDKSIHGDEEMHEWAKKLRESVDHWEVKEYDIHNGTAEADVVVQFNGREIRYQFVAVAHNGSVTSIVYRARDEDFERFLDDIFS | 0.165
DEEAAKHVNRMLEKGDEKKIAQHVDKDARAHVGNQELHGREDIIRAVTRFRQQADHMRVDSYEVQGDRIEVTFEVVVNGHKMQLKATIRVDNGRIKHNKIQARSEEQTKQMQKLLD | -0.171
DEEAAKKMMETWMKAVQKGDEKTVQKVYKPNGRWVHIDEERQGVEVVVKMMQQVKKQGVEFQIRRAKVEGDRVQFVYDLRLGDKTATFTVELQAQGGRVQEVKAEVSEEAKEIVTKG | 0.14
DEEAAKKVKTLVEHGDFQQMARNFDEDARVVIGDRVVHGREQAIEAMRRFDEAVDHQEVKSVTSSGNKVKFNIQAHVDGKTVRMIVVIEMHNGKLKMVRFDATSEDLRRILKRSLG | 1.27
DEEAAKLMRKMQQAVRSNNPEEVQRMMDPNASAKYGDKEVHGREEIATHLVKETRRMHIHYDVEHITVDNGRADVTADVQQEHNGKPERRKYKVHIEVRGDKLVHLRFETRK | 0.06
DEEAAKRAEEYLKALRSGNPDDLKKQIDPNASYQIGDKRVHGREQQATLAHNLQHNMRMEWELKDYRVQGNSVTLEIDVVIEHNGRPEKFKADVRVTFHNGKIQEMTVREDK | 0.051
DEEAAKRLENILKAEERNDEDSLRRLMDKDAHINVGDRQVHGMDRRRENVQHQSRRSDIQLESINKHENGDTVHVDVVRRYQHNGRPSRERFDAVAQVHNGKMRSMTAQDSQ | -0.44
DEEAARKFEHALRVREHGNEHQLQELVDPNARVSIGDKRVKGHERIQHWQETLHHEMRFRMQVDSYEVQGEKVRFNVRVQYDINGQPVDDRMTLVVQFDNGRIKSVEYQIPTEMKRDLKR | 0.032
DEEADKRITEQLKQEQEGDKDKVKEQIDPNARIKVGDKTIHGMDEYVRMVHRTRREQRRRIRVVSVEVRGNTAKVDADRHIDVNGRPVRYRIEFHVEFHNGKVTDIHVHTDQEQKKKQHG | 0.655
DEEAEDLVKELWKAWKHNDPDTWVKQLPPDARISVGNKEVHGREQARHEFERQVERMQVRLKVDSVHNRGNKAHFHVTVDASVNGKPVTFTVEVVITFHNGKAKYIEMRMSEEQFDKFQG | 1.41
DEEAEHVARELQKAQETGNPKRARHMMDENARIQVGDHRIHGMSRYLEDLRRKQEEIRIEFKRVSHNVNGNRVVINFLAVYEVNGHPVHLRIQLSFEIHNGRAQTMDVNISEQQMRDIER | -0.022
DEEAEKELRKMFQNENKGNPNEVMKQFDKHARVKVGEKEIRGRHQVHNYVDHVRKEMRRQIDSMSLEVHGNKLIVHITYVADINGHPVRVQVQYIIQFHNGKIKEVKVKIDEDEKRRMDQ | 0.385
DEEAEKLAREFIKAVQTGDEEELNELMDPNARFRIGNKTFHGMTNAAKEFNDKRREAHIEYHITSIRVSGDHVEVKVEVHVNVNGKPVHNEVTMDFKRHNGRIRDFQVQIDEEDQKKQDK | 1.29
DEEAEKRFEELMENRKTGNEHDVSEYADPNVTARIGDHEVRGREQLHDLQRKEKEEMRVDIKDYRLDFNGDTVRVEVHLEDEHNGRPRDRHQSNSFRWQNGKLKELHIRSDK | -0.353
DEEAEKVYRKMLHALRTGNEHQLKKLMDPNVHVKVGDKHIHGREDVAQEQRTDRQRWRNDQQLVTFHAEGDQVEFTVEYVIEVNGQPDKDRYKAFFRFDNGKIKEFQVDIDPKELKEQLN | 0.096
DEEAERIAEEFIRAQQTGDKDRLRKLMDPNARANVGDKRYHGMERWAKDVARTMHEQRVEIKDLKISVQGNKADVHIDLVVDHNGQPRRFDMRLDFRFNNGTIKEVSYDDKR | 0.391
DEEAERIIERYLEAVKTNDPEQMKEMADPNVKVKVGDKVIHGMEDAVKKVQHRLDEQRVEIKHVTLKVRNGRVNVEADVVVTHNGRPDRSKYHIDMEAHNGSAVYVRITDVS | 1.38
DEEAETVLKRWLTALRENDPQQAADLADPHAQFQIGEKTIRGREDLKRFMDEMLHHLRVDFTIDHVKVTGETVVVHFTVEFNVNGRPLRFEVVLVVKAENGKVKQLEQHMDDDQWRQVKS | 0.358
DEEAFKRFKEMVDAIRTGDRDRVRRLADPNARFEVGDKEVRGMDDYARKIKRKRDEIRMRYQIDSYSKSGDKVVARVQVEVEHNGQPSSHVYRAEFKNSNGRIVELNVKTDS | 0.275
DEEAFKVMEKLEEDIHTGSEENIEKLFDPNARLRVGDHVVDGRHNIAKHVRDVRESARLEFSVRTYDMQGEKVRLDVTWRREHNGQPESATATVVAEIHNGRIVSVTVDERK | 0.801
DEEAHELWKKWQEAFKTGDPEQLHEMADKDARLRIGNKEIHGREKAVKQLVDERKEMHIDYRIRSYKFEGNRLTFTAHANARVNGQPYRYTVKMQFSFSNGRLKELQIRIPEEVMQELRN | 0.791
DEEAHEVIDTLRKAQETGDRNTARSLIDPNATFQVGDNVIRGREEYVRDLVRHRDQIRVELKHLSQTFSNGKMRMTQEAVYDINGRPDRVEFTASATIHNGRVKHMTVQVPPEQVKRLER | -0.181
DEEAHKLATKWLRAVQTGDPDTVKELVDPNVRAVYGDQEITGRERLADEIKKTRDHSRVELESVRVTVHGDKVRAQADVRVNTNGKPERNTVDVTIVIHNGRIKRMHMQKSQ | 0.7

Sequence | protease stability score
DEEAHKLMEEMMRAWKHGDSQRVADLVDPNARVKIGDKEVRGHEQIKELVHTLKTEMRIEYQSISAENHGNHVEVDARLSVESNGKPEQVDFKLRLVVQNGRIREISADYKP | -0.035
DEEAHKVAESFIKAYSNGDEDKLKKNVDPNARIQIGDKYIHGMDTFVKEQRKRREQSRYHMSITHVDVQGNEVDVRFKAESEHDGQPHTNRMSVNFTFHNGNIKNVDIQYEP | -0.307
DEEAIDLANRFLEARKTGDPDKAREQADPNATFKYGDREVHGMDEMARQIEHEHKESRVNIDVDRVTDTGDTAKFDMSVRENHNGQPHTVKMDMVVKAHNGHIKHLSYTLNG | -0.514
DEEAIHRMEEFIKNVNNNNEEKLKELADPNVDAHIGDKVIHGMERIVTELVKELENIDIEYKDMRVEDRGDNIHIQIRAIFHHNGKPQEHTQIIDVQVENGKVKKMRRSSDS | 0.185
DEEAIKQAKKLLDALRTGDEETLKEMIDPNARIHVGDKEVHGREEAAEQWQRRQEEQSMDWKVKSVENTNGRAEFRATATRRHNGQPDHFDFTWRVQAHNGRVKHMQVETRG | -0.262
DEEAIKVQEEIQKQEEKGNEENVEKNMDENVKLRVGDKDLEGRSEVSKDVRRRKDEMRFQYLHMSYHSNGETIRVNIEMSSNHNGRPDTRRFDATFHIHNGKLTEYSKESSQ | 0.161
DEEAKDNFETAFKAEMTGDPQKYKKNVDPNAKVTIGDKTVRGREEVAKQLQHRRKESHVEFTDMKVKVQGDKVVVKLKAVDNENGRPDTAHYDIQFHASDGRITDLKVNKTK | -0.049
DEEAKEVLERWHTAIKHGDPNLAKEMADKDVRINVGDKSFSGMEQNAKDMHRERNELEYEILSVRFEVHGDKVKVEFHATRNNNGNPDTKKFDLTATASNGKATRVTLQSSG | -0.538
DEEAKKLADEWADAVNKNDEKSLKDLVDPNAKFRVGNQEYHGREQLEEFLSKWMSEWRHSLEDWRVNVQGDTVVLTAKLNVDVNGKPARVDAHVEFVVHNGRIKSQSEQFDEQRLRDNKS | 0.521
DEEALEILRDAWEALRTGDHEKLRELFDKNANVRIGEKRFEGSDEIMRDWLTTIRNIRFHIHDIKFTVNGDKAVVRVNVNFEHNGKPQSDVYRMSAEADNGRIKSADADRDK | 0.391
DEEALHILERFLKLMETNDEETLRDLVDPNAENRVGDKTVHGREDFQREVHTMKKQWRVRFRHIDNQSRPNEAVVRANVNNDINGRPITEDVVFRADFKNGKLKSLHIQMPEEYKKELDK | 0.455
DEEALHLATQLYTNWRNNNPEEVVKLLDENARINVGDFNVTGRNNVRSTLEHLNREMHFEMRISSVDDHNGRAHLTVEARKNINGQPRNVSMKMEVQFHNGKIQQIVAHMPEEDIRTLQS | 0.811
DEEALKFAETFLEVLHKGNPDDLRRLIDENVEIKIGDHEIDGMDNAVKQLHTRIKEINMHIKVDSMKAQGDSIKIHFTREVHRDGRPDTRHATLIMRFNNGELQRFQVDDRQ | 0.335
DEEALKHAKKLLNIITNGNPSEAQKLFDPNAKAHIGDQTLTGREDYVRDLQEKKDRMRYKIKSMDAQTDGEKVRFDIKYDFNINGQPRHASVVIRLKLHNGKIVEIRVQIDPEQLKQHRQ | 1.09
DEEALKKLQDILRRNDQDKMNKMIDKDVRVVIGEHEYRGKRNVQEALKREYEHADRFEVKHIEDHGDKLHVDVVLRVDGRDIRFVVVIDVHNGNIRNVKVDFTDEDTQRDFQRQLD | 1.01
DEEALKKMVDTLLKYVEQGNIKDIQQILKENVEFKLGDTEYKGVEHAKRDVKKLKDAGVEVHVKKTEVEGDTAHVETVWHAGDYEMHVTVQYVVRGDKVEKVEVRWSEEAKKALKVG | 0.24
DEEALKLLESLMEAVKTNNEERLKSLVDPNAHFQYGDKTLHGMEDWAKEVVRRMREIHVEWEWHTWSVHNGQIVVDVHARLEINGRPVHWKERIIVELENGKVKSMVFQISEEEKKHIDG | 1.6
DEEALKNVKENLEDGDWDNLAKQADENATWVYGEKRVHGRRDLKKYAEAMKRQIDHWSIRSITTRGNKASVNAEVQVNGHRRSFHIEVEVENGHIKHWNMNFTDPTDERKVLKILE | -0.017
DEEALKNWEHQLRAHEQGDENRLKELADPNVRYRVGNHEIRGMQQRVEDASRVKEHMRVQMSIQEVEVRGDKFDATATAEYVVNGRPQQITYKFSFHAHNGKIKNLDVRLDEDQQRKLEK | 0.184
DEEALKQAEEILTQRQTGNPQEVMKNMDKNVKFDYGDKTIHGKENLEKDVEKERTEMRYEIKSVEFRARGNKVVADFRATFNVNGHPFSVRVVFIAHFEDGKIKKATENVSEEQRKKMKS | 0.084
DEEALKRVEKFWEALNTGNEDELRKQLDPNARIRIGDKDIQGREDMAKWVRRVNRQMKMTVTIEDMQTRPGRAEIDAKASVNHNGRPNQHDVKLSAEFHNGQITSLTVQLKG | 0.592
DEEALKVLKEWIKAVETGDEERIKELVDKDVTVQVGDKVIRGREQVAKTVRKEREEMRVEINFDRLHADGDRVSAEFKVVEETNGRPNTKKQRMSARVHNGKFKSMEIQDDG | 0.205
DEEALNLFHRMINAIQENDPDTLHRLVDPNARIQIGDHDIHGMKTYVREVEKTLRSMRIKFDIKSVDVTGDKVVIDEKVDFDINGKPVHNKVEMRIKAHNGTVKHLDWKVPEDELKKIEE | -0.232
DEEALNNLHEFFKHWNTGNPHELMKLADPNVRFQVGEKVIHGREEFMKDIKRIREELRQEIDVRDVKVQGEKLIVKATRSEERNGKPSSDTIHMTARVHNGRIKSVDIKSTS | 0.435
